Target: Human EGFR JM-kinase construct (JM-A and JM-B, residues 645-998) (human)
Assay: static light scattering

## Human EGFR JM-kinase construct (JM-A and JM-B, residues 645-998) (domain or fragment)
  stoichiometry N: 2

— paper PMC2814540
